Laboratory results taken from patent US5262318.

Test system: SphI restriction endonuclease (recombinant, NEB#808 / pEGsph50-2; gene within SEQ ID NO:2) (Streptomyces phaeochromogenes)
Experiment: cleavage_in_vitro
Conditions: 150 units, 4 h, 37 C; nonspecific endonuclease control

Q: For phiX174 RFI DNA, which activity (% converted to RF II) is on record?
A: The activity (% converted to RF II) was less than 25.
